The nanobody polyreactivity screen of Harvey et al. (2022)

Assay: yeast display, Sf9 membrane polyspecificity reagent, FACS + sequencing; frameworks hold sequencing errors
Procedure, shortened: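 After 36–48 hours of galactose induction, yeast (Saccharomyces cerevisiae BJ5465) displaying a synthetic nanobody library were stained at 4 °C for 1 hour with 10% biotinylated, detergent-solubilized Sf9 membrane reagent. Streptavidin microbeads enriched the stained cells before FACS sorting into low and high (top ~1%) gates on anti-HA and streptavidin fluorescence. Each clone's polyreactivity label reflects its gate of origin.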

| Sequence | polyreactivity (PSR sort gate) |
| --- | --- |
| QVQLVESGGGLVQAGGSLRLSCAASGSIFEPYVMGWYRQAPGKERELVAAIRQTGGSTYYADSVKGRFTISRDNAKNTVYLQMNSLKPEDTAVYYCNAEQNPSGLYDYRGVEGEMGYWGQGTQVTVSS | low polyreactivity |
| QVQLVESRVGLVQAGGSLRLSCAASGITFYGYAMGWYRQAPGKERELVAAITSGGSTYYADTVKGRFTISRDNAKNTVYFQMNSLKPEDTAVYYCAAYLRRAYVHSYERYYWGQGTQVTVSS | low polyreactivity |
| QVQLVESGGRLVQAGGSLRLSCAASGRIFAAYAMGWYRQAPGKEREFVAGITRTGGSTYYADSVKGRFTISRDHAKNTVYFQMNSLKPEDTAVYYCAASLVYYGHAYNYWGQGTQVTVSS | high polyreactivity |
| QVQLVESGGGLVQAGGSLRLSCAASGIIFTYAMGWYRQAPGKERELVAAIDWRGGRTYYADSVKGRFTISRDNAKNTVYLQMNSLKPEDTAVYYCAARLPGGTYYWGQGTQVTVSS | high polyreactivity |
| QVQLVESGGGLVQAGGSLRLRCAASGSTFDSYAMGWYRQAPGKERELVAAITTTGGSTFYADSVKGRFTISRDYAKNTVYLQMNSLKPEDTAVYYCAADDGWQEFEYWGQGTQVTVSS | low polyreactivity |
| QVQLLESGGGLVQAGGSLRLSCAASGFIFDESAKGRYRQAPGKERQLVAAISWSGSRTYYADSVKGRFTISRDNAKNTVYLQMNSLKPEDTAVYYCAKVTGVGAGRRNYWGQGTQVTVSS | low polyreactivity |
| QVQLQESGAGPVLAGGSLRLSCAASGTIYVRLDMGWYRQAPGKEREFVATIGSGSSTYYADSVKGSFTISRDNVKNTVYLQMNSLNPEVTAVYYCAVSAAEQSRHYYWAQGTQVTVSS | low polyreactivity |
| QVQIVESGGGLVQAGGSLRVSCAASGRTFRLYAMGWYRQAPGKERELVAAITRGGRTNYADSVKGRFTISRDNAKYTVYLHMNSLKPEDTAVYYCAARYVERHTDYYYWGQGSQVTVSS | low polyreactivity |
| QVQLVESGGGLVQAGGSLRLSCAASGRTFEYYAMGWYRPAPGKERELVAAITYSGDSTYYADSVKGRFTISRDNAKNTVYLQMNSLKPEDTAVYYCAADWSSLKDDYWGQGTQVTVSS | low polyreactivity |
| QVQLVDSGGGIGQAGASLRLSCAASGRNFAVYAIGWYRQAPGKERELVAAITRNGGSTYADSVKGRFTISRDNAKNTVYFQMNSLKPDDTAVYYCNAVAYIYSYAYPPYWGREHLNYWGQGTQLTVSS | low polyreactivity |
| QVQLVESGGGLVQAGGSLRLSCASSGGIFASNVMGWYRQAPGKERELVAAISSITGSTYYADSVKGRFTISRDNAKNTVYLQMNSLKPEDTAVYYCAAYVQFAKIRFDYWGQGTQVTVSS | high polyreactivity |
| QDQLVESGGGLVQAGGSLRLSCAASGSIFKINAMGWYRQATGKERELVATITWSTGTTYYADSVKGRFTISRDNAKNTVYLQMNSLKPEDTAVYYCATDGDSTKLDYWGQGTQVTVSS | low polyreactivity |
| QVQLVESGGGLVQAGGSLRLSCAASGITFHVYAMGWYRQAPGKEREFVASISWSGGSTYYADSVKGRFTISRDNAKNTVYLQMNSLKPEDTAVYYALLTVLSAVPYSVRYDYWGQGTQVTVSS | high polyreactivity |
| QVQLVESGGGLVQAGGSLRLSCAASGSIFYPYAMGWYRQAPGKERELVAAITSSTGSTYYADSVKGRFTISRDHAKNTVYLQMNSLKPEDTAVYYCAAAGYWSYFMMDYWGQGTQVTVSS | low polyreactivity |
| QVQLVESGGGLVQAGGSLRLSCAASGNTFYGYAMGWYRQAPGKERELVASITLSGDSTYYADSVKGRFTISRDNAKNTVYLQMNSLKPADTAVYYCAGVYTYPLGYYHYTYDYWGQGTQVTVSS | low polyreactivity |
| QVQLVESGGGLVQAGGSLRLSCAASGRIFFRNAMGWYRQAPGKDRELVAAITWNGGSTYYADSVKGRFTISRDNAKNTVYLQMNSLKPEDTAVYYCATKTLSRTRTYYYWGQCTQVTVSS | high polyreactivity |
| QVQHVESGGGSVQAGGRLRLSCAASGSTFIEYAMGWYRKAPGKERELVAGITTSSGRTSYADSVKGRFTISRDNAKNTVYLQMNSLKPEDTAVYYCAAKSYSDYDYWGQGTQVTVSS | low polyreactivity |
| QVQLVESGGGLVQAGGSLRLSCAASGSTFEYNAKGWYRQAPGKERELVASSTNYADSVKGRFTISRDNAKNTVYFQMNSLKPEDTAVYYCAARSLRYPYDYWGQGTQVTVSS | low polyreactivity |
| QVQLVESGGGLVQAGGSLRISCAASGSSFHDYAMGWYTQAPGKERELVAAISSSGTSTYYADSVKGRFTISRDNANNTVYLQMNILKPEDTAVYYCAVYAISFAWSGWTYEDYWGQGTQVNVSS | low polyreactivity |
| QVQLVESGGGLFQSGGSLRLTSAASGSTFAYKAMGWYRQAPGKEREFVAAITIGSTYADSVKGRFTISRDNAKNTVYLQMNSLKPEDTAVYYCAVRRPRRNYNYPYDYWGQGTQVTVSS | low polyreactivity |
| QVQLVESGGGLVQAGGSLRFSCAASGLYYYAMGWYRQAPGKERALVAVITYSGGSTYYADSVKGRFTISRDNGKNSVYLQMNSLKPEDTAVYNCAAEDYYVALPGLYDYWGQGTQVTVSS | low polyreactivity |

| Sequence | polyreactivity (PSR sort gate) |
| --- | --- |
| QVQLVETGGGLVQAGGSLRLSCAASGSIFYAYAMGWYRQAPGKERELVATITSGGSTNYADSVKGRFTISRDNAKNTVYLQMNSLKPEDTAVYYCAVDISYSLGGGFGYDYWGQGTQVTVSS | low polyreactivity |
| QVQLVESGGGLVQAGGSLRLISAASGSIFAKYAMGWYRHAPGKERELVAAITGSGGSTYYADSVKGRFTISRDNAKNTVYLQMNSMKPEDPAVYYCAKRRPRYTYNYCGQGTQVTVSS | high polyreactivity |
| QVQLVESGGGLVQAGGSLRLSCAASGSTFQGYAMGWYRQAPGNERELVAAISRRGGSTYYADSVKGRFTISRDNAKNTVYFQKNSLKPEDTAVYYCNAVVRTIVLYYWGQGTQVTVSS | high polyreactivity |
| QVQLVESGGGLVQAGGSLRLSCAASGSILYLNAMGWYRQAPGKERELVASISSSGGNTYYADSVTGRFTISRDNAKNTVYFQMNSLKPEDTAVYYCNTRWVHRDWYDYWGQGTQVTVSS | high polyreactivity |
| QVQLVESGGGLVQAGGSLRLSCAASGFIFWDYAMGWNRQAPRKERELVAAISDSGGDTYYADSVKGRFTISRDNAKNTVYLQMNSLIPEDTAVYYCAADVVLWVFRGQQYDYWGQGTQVTVSS | low polyreactivity |
| QVLLVESGGGLVQAGGSLRLSCAAWSIFYLNAMGWYRQAPGKERELVAAISSAGSTYYADSVKVRFTISRDNAKNTVYLQMNSLKPEDTAVYYCAAYWYDSPGVTEIWYDYWGQGTQVTVSS | low polyreactivity |
| QVQLVESGGGLVQAGGSLRLSCAASGSIFSYYAMGWYRQAPAKERELVAAISQNACSTYYADSVKGRFTISRDNAKNTVYLQMNSLKPEDTAVYYCNAYSVYVRGEYWGQGTQVNVSS | high polyreactivity |
| QVQLVESGGGLVQAGGSLRLSCAASGRTFNFNVMGWYRQAPGKESQLVAAISKSTGSTFYADSVKGRFTISRDNAKNTVYLQMNSLKPEDTAVYYCNAVRCYGSGRGYGYCGQGTQVTVSS | high polyreactivity |
| QGQLVESGGGLGQAGGSLRLSCAASGSTSGIYAMGWYRQAPGKERELVAAIDTSGGSSYADSVKGRFTISRDNAKHTVYLQMNSLKPEDTAVYYCAKPFCSNSWSHGYWGQGTQVTVSS | low polyreactivity |
| QVQLVESGGGLVQAGGSLRLSCAASGSIFLWNAMGWYRQAPGKERELVAAISSSGGSTYYADSVKGRFTISRDNAKNTVYLQLNSLKPEDTAVYYCAAVSRSYYNSYNYWGQGTQVTVSS | high polyreactivity |
| QVQLVESGGGLVQAGGSLRLSCAASGFTFRYYAMGWYRQAPGKERELVAAITNVGSTNYADSVKGRFTMSRDNAKHTVYLQMNSLKPEDTAVYYCNARDYYSYDYWGQGTQVTVST | high polyreactivity |
| QVQLVESGGGLVQAGGSLRLSCAASGLIFVWYALGWSRQAPGKERELVAAISWRGGTTYYADSVKGRFTISRDNAKNTVYLQMNSLKPEDTAVYYCNAEGSQVDYLRYVWYDMDYWGQGTQVTVSS | low polyreactivity |
| QVQLVESGGGLVQAGGSLRLSCADSGSTFTRYAIGWYRQAPGKEMEFVAAISWSGGITYYADSVKGRFTISRDNAKNTVYFQMKSLKPEDTAVYYCAAKRRYTRGGYGVDYWGQGTQVTVSS | high polyreactivity |
| QVQLVESGGGLVQAGGSLRLSCGASGRIFAVNAMGWYRQARGKERELVAAITNVGSTNYADSVKGRFTISRDNAKNTVYLQMNSLKPEDTAVYYCNADLAQEDWKMDYWGLGTQVTVSS | low polyreactivity |
| QVQLVESGGGLVQAGGSLRLSCAASGRTFLNYAMRWNRQAPVKERELVAAITDGDSTNYADSVKGRFTISRDNAKNTVYLQMNSLKPEDTAVYYCNAPSLAYRYYYWGQGTQVTVSS | high polyreactivity |
| QVQLVESGGGLVQAGGSLRLICAASGLIFRGYAKGWYRQAPGKERELVAAISKSGGSTYYADSVKGRFTISRDNAKNTVYLQMNSLKPEDTAVYYCNTDYVWKYFLSSQYDYWGQGTQVTVSS | high polyreactivity |
| QVQLVESGGGLVQAGGSLRLSCAASGYTFESYTMGWYRQGPGKERDFVAVISSSDTSTSYADSVKGRFTISRDNAKNTVYLQINSLKAEDTAVYYCAAYSSPYYITYYWYNYDYWGQVTQVTVSS | low polyreactivity |
| QVQLVESGGGLVQAGGSLRLSCAASGSTFTLNAMGWYRQAPGKERELVARISSGGGSTYYADSVNGRFTISRDNAKNTVYLQMNSLKPEDTAVYYCNAGNYRDKSYYWGQGTQVTVSS | low polyreactivity |
| QVQLVESGGGLVQAGGSLRLSCAASGGILDTSAMGWYRQAPGKERELVAAITSGGHTNYADSVKGRFTISRDNAKNTVYLQMNSLKPEDTAVYYCNVVTWYYVFRPWEYDYWGHGTQVTVSS | low polyreactivity |
| QVQLVESGGGLVQAGGSLRLSCAASGRTFRYYVMGWYRPAPGKERELVASITSNGDSTYYADSVKGRFTISRDNAKNTVFLQWKSLKPEDTAVDYCAVRWRDYRGSYRGFEYWGQGSQVTVSS | high polyreactivity |
